{
  "source": "paper PMC11784390",
  "about": "“Conformational changes in and translocation of small proteins: insights into the ejection mechanism of podophages” (Journal of Virology, 2024)",
  "key": {"portal protein gp8": {"molecular_target": "T1, portal protein gp8 (bacteriophage T7, UniProt P03728 1-536)", "T1 construct": "portal protein gp8 of bacteriophage T7, as it stands in the virion; Native virion protein; also called dodecameric portal; source: T7 virions propagated in E. coli, purified (PEG precipitation, CsCl ultracentrifugation); copies: 12", "T1 sequence (looked up)": "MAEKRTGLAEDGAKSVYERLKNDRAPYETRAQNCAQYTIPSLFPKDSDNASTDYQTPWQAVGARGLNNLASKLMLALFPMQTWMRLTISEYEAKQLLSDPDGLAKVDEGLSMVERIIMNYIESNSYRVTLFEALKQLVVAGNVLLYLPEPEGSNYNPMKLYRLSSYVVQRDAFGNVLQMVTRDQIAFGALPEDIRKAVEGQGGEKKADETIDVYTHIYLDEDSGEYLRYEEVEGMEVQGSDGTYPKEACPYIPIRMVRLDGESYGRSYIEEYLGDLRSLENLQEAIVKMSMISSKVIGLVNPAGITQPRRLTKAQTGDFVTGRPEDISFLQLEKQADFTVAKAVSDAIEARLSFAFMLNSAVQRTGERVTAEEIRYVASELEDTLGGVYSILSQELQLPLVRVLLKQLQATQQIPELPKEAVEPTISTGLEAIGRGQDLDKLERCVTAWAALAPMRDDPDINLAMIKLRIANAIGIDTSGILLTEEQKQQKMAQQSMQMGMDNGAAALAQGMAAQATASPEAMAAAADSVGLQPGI", "assay": "cryo-EM structure; mature T7 virions, in situ; entire particle asymmetric 6.1 Å; local reconstructions of core complex 3 Å (four-fold), portal 2.5 Å (twelve-fold), portal–tail complex 2.7 Å (six-fold)", "conditions": "both partners purified"}, "core protein gp15": {"molecular_target": "T2, core protein gp15 (bacteriophage T7, UniProt P03725 1-747)", "T2 construct": "core protein gp15 of bacteriophage T7, as it stands in the mature virion; Eight-fold ring in the core of mature T7; source: T7 virions propagated in E. coli, purified (PEG precipitation, CsCl ultracentrifugation)", "T2 sequence (looked up)": "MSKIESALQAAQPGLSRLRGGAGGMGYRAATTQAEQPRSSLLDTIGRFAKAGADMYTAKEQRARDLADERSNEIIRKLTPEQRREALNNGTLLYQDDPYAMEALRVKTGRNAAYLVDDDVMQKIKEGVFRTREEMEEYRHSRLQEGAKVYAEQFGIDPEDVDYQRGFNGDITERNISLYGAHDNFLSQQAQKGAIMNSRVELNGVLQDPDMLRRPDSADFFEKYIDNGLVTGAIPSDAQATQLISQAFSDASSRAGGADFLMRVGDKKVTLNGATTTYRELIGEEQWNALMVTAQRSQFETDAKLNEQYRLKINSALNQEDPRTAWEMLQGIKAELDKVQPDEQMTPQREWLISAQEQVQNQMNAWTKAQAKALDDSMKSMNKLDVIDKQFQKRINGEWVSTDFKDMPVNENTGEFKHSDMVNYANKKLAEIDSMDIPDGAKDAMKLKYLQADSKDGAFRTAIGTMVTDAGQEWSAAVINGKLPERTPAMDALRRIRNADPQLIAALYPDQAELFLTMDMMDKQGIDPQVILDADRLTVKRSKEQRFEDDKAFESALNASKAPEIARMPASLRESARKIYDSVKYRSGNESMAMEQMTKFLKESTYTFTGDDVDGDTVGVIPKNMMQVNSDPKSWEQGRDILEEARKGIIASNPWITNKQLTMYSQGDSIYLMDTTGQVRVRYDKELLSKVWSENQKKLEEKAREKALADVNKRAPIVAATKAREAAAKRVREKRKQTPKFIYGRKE", "assay": "cryo-EM structure; mature T7 virions, in situ; entire particle asymmetric 6.1 Å; local reconstructions of core complex 3 Å (four-fold), portal 2.5 Å (twelve-fold), portal–tail complex 2.7 Å (six-fold)", "conditions": "both partners purified"}, "nozzle protein gp12": {"molecular_target": "T3, nozzle protein gp12 (bacteriophage T7, UniProt P03747 1-794)", "T3 construct": "nozzle protein gp12 of bacteriophage T7, as it stands in the virion; Native virion protein; also called tail nozzle; source: T7 virions propagated in E. coli, purified (PEG precipitation, CsCl ultracentrifugation)", "T3 sequence (looked up)": "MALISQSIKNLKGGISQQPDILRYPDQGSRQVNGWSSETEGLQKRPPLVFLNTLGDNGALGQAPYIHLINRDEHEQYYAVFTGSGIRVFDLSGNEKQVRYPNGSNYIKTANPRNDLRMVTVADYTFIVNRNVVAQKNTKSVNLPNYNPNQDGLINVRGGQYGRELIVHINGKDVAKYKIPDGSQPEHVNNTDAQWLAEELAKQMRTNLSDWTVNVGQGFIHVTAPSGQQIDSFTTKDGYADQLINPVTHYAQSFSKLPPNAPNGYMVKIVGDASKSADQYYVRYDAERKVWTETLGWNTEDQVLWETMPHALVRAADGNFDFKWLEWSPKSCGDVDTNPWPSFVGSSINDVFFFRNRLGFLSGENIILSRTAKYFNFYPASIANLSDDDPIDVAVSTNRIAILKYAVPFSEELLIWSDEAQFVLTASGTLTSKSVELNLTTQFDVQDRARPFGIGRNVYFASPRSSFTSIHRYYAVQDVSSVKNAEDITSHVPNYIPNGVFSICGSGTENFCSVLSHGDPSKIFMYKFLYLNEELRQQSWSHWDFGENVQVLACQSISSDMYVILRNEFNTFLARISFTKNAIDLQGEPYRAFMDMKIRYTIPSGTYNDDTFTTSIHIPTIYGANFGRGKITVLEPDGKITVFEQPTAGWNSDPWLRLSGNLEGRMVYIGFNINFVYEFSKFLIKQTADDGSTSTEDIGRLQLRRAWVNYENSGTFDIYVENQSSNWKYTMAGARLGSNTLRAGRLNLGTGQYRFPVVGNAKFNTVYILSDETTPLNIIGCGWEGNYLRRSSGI", "assay": "cryo-EM structure; DNA-ejected T7: purified mature T7 incubated with rough LPS (250 µg/mL) at 37°C for 3 h; entire particle asymmetric 8.2 Å; portal–tail complex 3.5 Å (six-fold)", "conditions": "both partners purified"}, "[1]": {"molecular_target": "the molecule itself", "assay": "cryo-EM structure; DNA-ejected T7: purified mature T7 incubated with rough LPS (250 µg/mL) at 37°C for 3 h; entire particle asymmetric 8.2 Å; portal–tail complex 3.5 Å (six-fold)"}},
  "data": [
    {"binder": "core protein gp14 (natural protein, bacteriophage T7, UniProt P03724 1-196, looked up, core protein gp14 of bacteriophage T7, 196 residues as printed; modelled residues 4-86 and 101-129 in mature T7, 25-143 in DNA-ejected T7; Eight copies resolved in the mature virion, six copies in the extended channel of DNA-ejected T7; source: T7 virions propagated in E. coli, purified (PEG precipitation, CsCl ultracentrifugation)) MCWAAAIPIAISGAQAISGQNAQAKMIAAQTAAGRRQAMEIMRQTNIQNADLSLQARSKLEEASAELTSQNMQKVQAIGSIRAAIGESMLEGSSMDRIKRVTEGQFIREANMVTENYRRDYQAIFAQQLGGTQSAASQIDEIYKSEQKQKSKLQMVLDPLAIMGSSAASAYASGAFDSKSTTKAPIVAAKGTKTGR", "values": [
      {"measurement": "binding result", "setting": "portal protein gp8", "value": "binds"},
      {"measurement": "binding result", "setting": "core protein gp15", "value": "binds"},
      {"measurement": "binding result", "setting": "nozzle protein gp12", "value": "binds"},
      {"measurement": "stoichiometry N", "setting": "[1]", "value": 6}
    ]}
  ]
}
